This is an account of results in paper PMC11087511.

The target in data set [1] is T1, human alpha-thrombin (human, UniProt P00734;P00734 328-363;364-622). The experiment in a line: BLI; kon 3.9e7 M-1s-1, koff 2.1e-3 s-1; DAB moiety binds active site; not given in the material (Methods for BLI and fluorogenic assay are headings only). For orientation: Biolayer interferometry detects binding as a change in optical thickness at a sensor tip.
Data set [2] deals with thrombin S195A (UniProt P00734;P00734 315-363;364-622, S568A). The data set is described as follows: X-ray crystallography; 2.2 A; Na+; DAB in S1 pocket, aptamer at exosite 2; not given in the material (Methods for BLI and fluorogenic assay are headings only).
The target in data set [3] is T1, human alpha-thrombin. The experiment in a line: inhibition of fluorogenic peptide cleavage; DAB moiety contributes; max inhibition >99%; not given in the material (Methods for BLI and fluorogenic assay are headings only).
For data set [4], the target named is T1, human alpha-thrombin. The experiment in a line: inhibition of fluorogenic peptide cleavage; maximum inhibition 30%; not given in the material (Methods for BLI and fluorogenic assay are headings only).
Data set [5] concerns the target T1, human alpha-thrombin. The data set is described as follows: inhibition of fluorogenic peptide cleavage; maximum inhibition 55%; not given in the material (Methods for BLI and fluorogenic assay are headings only).
Data set [6] has as its target T1, human alpha-thrombin. The experiment in a line: BLI; not given in the material (Methods for BLI and fluorogenic assay are headings only).

B1: Bio-HD22-7A-DAB (structured_DNA)
DNA: AAAAAAAAGTCCGTGGTAGGGCAGGTTGGGGTGACT
modifications: 5' C6-dabigatran
As to B1, in data set [1], the Kd – broadly, the equilibrium constant for the complex coming apart – turned out to be 0.054 nM.

B2: HD22-7A-DAB (structured_DNA)
DNA: AAAAAAAAGTCCGTGGTAGGGCAGGTTGGGGTGACT
modifications: 5' C6-dabigatran
Regarding B2, the binding result in data set [2] is “binds”. In addition, it took 0.1 nM to reach half-maximal inhibition in data set [3] (IC50).

B3: HD22 (structured_DNA)
DNA: AGTCCGTGGTAGGGCAGGTTGGGGTGACT
B3: the midpoint of inhibition in data set [4], the IC50, lay at 0.95 nM.

B4: HD22-0A-DAB (structured_DNA)
DNA: AGTCCGTGGTAGGGCAGGTTGGGGTGACT
modifications: 5' C6-dabigatran
Regarding B4, the midpoint of inhibition in data set [5], the IC50, lay at 0.55 nM.

B5: Bio-HD23-7A-NH2 (ssDNA)
DNA: AAAAAAAAGTCCGTAATAAAGCAGGTTAAAATGACT
modifications: 5' C6-amine
Turning to B5, in data set [6], the binding result was “no binding”.
